US20250101133A1 (CENTRE NATIONAL DE LA RECHERCHE SCIENTIFIQUE, published 2025)

Experiments:
[1] = molecular target: T1, recombinant human NEDP1 protein (human, UniProt Q96LD8 1-212); assay: SPR and ELISA
T1 construct: also called deNEDDylating enzyme NEDP1; NEDP1 enzyme
T1 sequence (looked up): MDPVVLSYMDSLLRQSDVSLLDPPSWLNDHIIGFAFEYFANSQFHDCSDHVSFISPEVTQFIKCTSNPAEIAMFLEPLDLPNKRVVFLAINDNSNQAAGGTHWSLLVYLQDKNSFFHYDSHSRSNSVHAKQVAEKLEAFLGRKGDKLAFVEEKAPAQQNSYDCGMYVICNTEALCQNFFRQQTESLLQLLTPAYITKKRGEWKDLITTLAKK
Procedure: (§1) FIGS. 1A-1C: FIG. 1A Table showing the different Nanobodies isolated and their binding specificity towards the immunogen human NEDP1 and ULP-3, the C. elegans homologue of NEDP1 (−poor/no binding, + indicates binding affinity/specificity). FIG. 1B ELISA test, showing the binding of indicated Nanobodies (300 ng) against increasing amounts of coated recombinant human NEDP1. FIG. 1C Table showing the SPR (Surface Plasmon Resonance) analysis and binding affinities for indicated Nanobodies against human NEDP1.
(§2) Nbs affinities for NEDP1 were determined on a Biacore 2000 apparatus (Biacore AB, Uppsala, Sweden). Nanobodies (355 nM) were immobilized on anti-His6 antibody covalently immobilized on a carboxymethyl dextran sensorchip (CM5 Biacore AB) using the amine coupling method according to the manufacturer's instructions. The immobilization level was 500 resonance units (RU). Different concentrations of NEDP1 ranging from 0.75 to 200 nM in HEPES-buffered saline (0.01 M HEPES, pH 7.4, 0.15 M NaCl, 3 mM EDTA, 0.005% surfactant P20) were injected and exposed to the Nb. All sensorgrams were fitted by subtracting the signal from the reference flow cell and were treated using BIA evaluation version 3.2 software (Biacore AB).

[2] = molecular target: T2, endogenous NEDP1 in U2OS cell extracts (human, UniProt Q96LD8 1-212); assay: anti-Flag immunoprecipitation from U2OS cell extracts, western blot with anti-NEDP1
T2 construct: Untagged native protein, co-immunoprecipitated from cell lysate
T2 sequence (looked up): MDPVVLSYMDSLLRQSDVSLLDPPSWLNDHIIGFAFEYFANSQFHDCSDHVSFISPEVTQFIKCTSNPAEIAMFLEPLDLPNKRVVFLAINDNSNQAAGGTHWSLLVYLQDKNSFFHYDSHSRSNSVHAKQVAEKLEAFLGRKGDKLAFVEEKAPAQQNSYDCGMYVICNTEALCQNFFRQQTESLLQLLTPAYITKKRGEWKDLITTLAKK
Procedure: FIGS. 4A-4B: FIG. 4A Extracts from empty pcDNA3 vector (vect.) or stably expressing Nanobody 2/Nanobody 9-Flag (AbR2DP12/AbR2DP46) U2OS cells were used for anti-Flag immunoprecipitations. Total cell extracts (input) and eluates were used for western blot analysis with the indicated antibodies. FIG. 4B U2OS cells described above were lysed in 2×SDS buffer and extracts were analysed by western blotting with the indicated antibodies.
U2OS cells either with empty pcDNA3 vector or stably expressing Nb2/Nb9-Flag constructs were lysed in 50 mM Tris-HCl, pH 7.4, 100 mM KCl, 1% NP-40, 2 mM EDTA, protease inhibitors (complete EDTA-free, Roche) for 15 min on ice. After centrifugation at 13000 rpm for 15 min at 4° C. extracts were used for immunoprecipitations overnight at 4° C. with 20 μl of pre-washed Flag beads. Next day beads were washed 3× with 500 μl of lysis buffer, resuspended in 50 μl of 2×SDS Laemmli buffer and boiled for 5 min. Eluates were analysed by western blotting.

[3] = molecular target: T1, recombinant human NEDP1 protein; assay: SPR
Procedure: as §1, §2

B1: AbR2DP46, purified His6-tagged nanobody (VHH)
VHH: QVQLQESGGGLVQAGGSLRLSCAASGSPFSIGTMAWYRQAPGNQRASVAAITRGGATTYANSVKGRFTVSRDNAKNTVYLQMNSLKPEDTAAYYCSVWAGDRAYWGQGTQVTVSS
notes: Llama VHH, recloned into pHEN6 and purified from E. coli periplasm as a His6-tagged protein; also called Nb9; Nanobody 9; not shown: His6 tag from vector pHEN6
binding result [1]: binds

B2: Nb9-Flag (AbR2DP46 with Flag tag, stably expressed in U2OS cells) (VHH)
VHH: QVQLQESGGGLVQAGGSLRLSCAASGSPFSIGTMAWYRQAPGNQRASVAAITRGGATTYANSVKGRFTVSRDNAKNTVYLQMNSLKPEDTAAYYCSVWAGDRAYWGQGTQVTVSS
notes: Expressed inside U2OS cells from a pcDNA3 construct; also called Nanobody 9-Flag; AbR2DP46-Flag; not shown: Flag tag
binding result [2]: binds

B3: AbR2DP47, purified His6-tagged nanobody (VHH)
VHH: QVQLQESGGGLVEPGGSLRLSCAASGSISSINVMAWYRQAPGKQRESVAAISSFGITTYSETVKGRFTASRDNAKNTMYLQMNNLKPEDTAVYYCKGPNTDWGQGTQVTVSS
notes: Llama VHH, recloned into pHEN6 and purified from E. coli periplasm as a His6-tagged protein; also called Nb10; Nanobody 10; not shown: His6 tag from vector pHEN6
binding result [1]: binds

B4: AbR2DP35, purified His6-tagged nanobody (VHH)
VHH: QVQLQESGGGLVQPGGSLTLSCAASGVMFSTGVMGWYRQAPGKQREAVAAITSGGLTTYKDSVKGRFAISRDNTKSTGYLQMNRLRPEDTAVYYCNVRGYWGQGTQVTVSS
notes: Llama VHH, purified as a His6-tagged protein; also called Nb7; Nanobody 7; not shown: His6 tag from vector pHEN6
binding result [3]: binds

B5: AbR2DP12, purified His6-tagged nanobody (VHH)
VHH: QVQLQESGGGLVQAGGSLRLSCAASGSTSSFNVMAWYHQAPGKQRESVASITSGGITVYRDSVKGRFAISSDNAKNTVFLQMNSLKPEDTGVYYCGGVVDGRVYRGQGTQVTVSS
notes: Llama VHH, recloned into pHEN6 and purified from E. coli periplasm as a His6-tagged protein; also called Nb2; Nanobody 2; not shown: His6 tag from vector pHEN6
binding result [1]: binds

B6: Nb2-Flag (AbR2DP12 with Flag tag, stably expressed in U2OS cells) (VHH)
VHH: QVQLQESGGGLVQAGGSLRLSCAASGSTSSFNVMAWYHQAPGKQRESVASITSGGITVYRDSVKGRFAISSDNAKNTVFLQMNSLKPEDTGVYYCGGVVDGRVYRGQGTQVTVSS
notes: Expressed inside U2OS cells from a pcDNA3 construct; also called Nanobody 2-Flag; AbR2DP12-Flag; not shown: Flag tag
binding result [2]: binds
